# Results from the RNAGym collection of RNA variant scans (doi:10.7554/elife.80360).
# B1: HDV Ribozyme (parent)
# chain: GGCCGGCAUGGUCCCAGCCUCCUCGCUGGCGCCGGCUGGGCAACAUUCCGAGGGGACCGUCCCCUCGGUAAUGGCGAAUGGGACCCA
# Variants of: B1
# Test: self-cleavage, relative activity (ratio to wild type); higher = more cleavage; co-transcriptional
row,Variant,self-cleavage
1,GGCCGGCAUGGUCCCAGCCUCCGCGCUGGCGCCGGCUGGGCAACAUUCCGAGGGGACCGUCCCCUCGGUAAUAGCGAAUGGGACCCA,0.259
2,GGCCGGCAUGGUCCCAGCCUCCUCGCUGGCGCCGGCUGGGCAACAUUCCGAGGGGACCGUCCCCUCGGUUCUGGCGAAUGGGACCCA,0.802
3,GGCCGGCAUGGUCCCAGCCUUCUCGCUGACGCCGGCUGGGCAACAUUCCGAGGGGACCGUCCCCUCGGUAAUGGCGAAUGGGACCCA,0.0683
4,GGCCGGCAUGGUCCCAGGCUCCUCGCUGGCGCCGGCUGGGCAACAUUCCGAGGGGAACGUCCCCUCGGUAAUGGCGAAUGGGACCCA,0.0536
5,GGCCGGCAUGGUCCCAGCCUCCUCGCAGGCGCCGGCUGGGCAAUAUUCCGAGGGGACCGUCCCCUCGGUAAUGGCGAAUGGGACCCA,0.482
6,GGCCGGCAUGGUCCCAGCCUCCUCGCUGGCGCCGGCUGGGCAACAUUCCGAAGGGACCGUCGCCUCGGUAAUGGCGAAUGGGACCCA,0.397
7,GGCCGGCAUGGUCCCAGCCUCCUCGCUGGUGCCGGCUGGGCAACAUUCCGAGGGGACCGUCCCCUCGGUAAUGGCGGAUGGGACCCA,0.489
8,GGCAGGCAUGGUCCCAGCCUCCUCGCUGGCGCCGGCUGGGCAACAUUCCGAGGGGACCGUUCCCUCGGUAAUGGCGAAUGGGACCCA,0.267
9,GGCCGGCAUGGUCCCAGCAUCCGCGCUGGCGCCGGCUGGGCAACAUUCCGAGGGGACCGUCCCCUCGGUAAUGGCGAAUGGGACCCA,0.0923
10,GGCCGGCAUGGUCCCAGCCUCCUCGCUGGCGCCGGCUGGGCAACAUUCCGAGGGGACCGUCCCCUCGGUAAUGGCGAUUGGGACACA,0.185
11,GGCCGGCAUGGUCCCAGCCUCCUCGCUGGCGCCGGCUGGGCAACAUUCCGAGGGGACCGUCCCCUCGGUAACGGCGAAUGUGACCCA,0.148
12,GGACGGCAUGGUCCCAGCCUCCUCGCUGGCGCCGGCUGGGCAACAUUCCGAGGGGCCCGUCCCCUCGGUAAUGGCGAAUGGGACCCA,0.495
13,GGCCGGCAUGGUCGCAGCCUCCUCGCUGGCGCCGGCUGGGCAACAUUCCGAGGGGGCCGUCCCCUCGGUAAUGGCGAAUGGGACCCA,0.646
14,GGCCGGCAUGGUCCCAGCAUCCUCGCUGGCGCCGGCUGCGCAACAUUCCGAGGGGACCGUCCCCUCGGUAAUGGCGAAUGGGACCCA,0
15,GGCCGGCAUGGUCCCAGCCUCCUCGAUGGCGCCGGCUGGGCAGCAUUCCGAGGGGACCGUCCCCUCGGUAAUGGCGAAUGGGACCCA,0.731
16,GGCCGGCAUGGUCCCAGCCUCCUCGCUGGCGCCGGCUGGGCAACAUCCCGAGGGGACCGUCCCCUCGGUAGUGGCGAAUGGGACCCA,1.13
17,GGCCGGCAUGGUCCCAGCCUGCUCGCUGGCGCCGGCUGGGCAACAUUCCGAGGGGACCGUCCCAUCGGUAAUGGCGAAUGGGACCCA,0.131
18,GGCCGGCAUGGUCCCAGCCUCCUCGCUGGCGCCGGCUGGGCAACAUUCCGAGGGGACCGUCCCCUGGGUAAUGGUGAAUGGGACCCA,0.157
19,GGCCGGCAUGGGCCCAGCCUCCUCGCUGGCGCAGGCUGGGCAACAUUCCGAGGGGACCGUCCCCUCGGUAAUGGCGAAUGGGACCCA,0
20,GGCCGGCAUGGUCCCAGCCUCCUCGCUGGCGCCGGCUGGGCAACAUUCCGAGGGGACCGUCCCCUCGGUAAUGGCGAAAGGCACCCA,0.0504
21,GGCCGGCAUGGUCCCAGCCUCCUCGCUGGCGCCGGCUGGGCAACAUUCCGAGGAGACCAUCCCCUCGGUAAUGGCGAAUGGGACCCA,1.01
22,GGCCGGCAUGGUCCCAGCCUCCUCGCUGGGGCCGGCUGGGCCACAUUCCGAGGGGACCGUCCCCUCGGUAAUGGCGAAUGGGACCCA,0.151

row,Variant,self-cleavage
1,GGCCGGCAUGGUCCCAGCCUCCUCGCUGGCGCCGGCUGGGCGAUAUUCCGAGGGGACCGUCCCCUCGGUAAUGGCGAAUGGGACCCA,0.639
2,GGCCGGCAUGGUCCCAGCCUCCUCGCUGGCGCCGGCUGGGCAACAUUCCGAGGGGACCGUCCCCUCGUUAAUGGCGAAAGGGACCCA,0.928
3,GGCCGGCAUGUUCCCAGCCUCCUCGCUGGCGCCGGCUGGGCAACAUUCCGAGGGGACUGUCCCCUCGGUAAUGGCGAAUGGGACCCA,0.447
4,GGCCGGCAUGGUCCCAGCCUCCUCGCUGGCGGCUGCUGGGCAACAUUCCGAGGGGACCGUCCCCUCGGUAAUGGCGAAUGGGACCCA,0.0415
5,GGCCGGCAUGGUCCCAGCCUCCUCGCUGGCGCCGGCUGGGCAACAUACUGAGGGGACCGUCCCCUCGGUAAUGGCGAAUGGGACCCA,0.972
6,GGCCGGCAUGGUUCCAGCCUCCUCGCUGGCGCCGGCUGGGCUACAUUCCGAGGGGACCGUCCCCUCGGUAAUGGCGAAUGGGACCCA,0.125
7,GGCCGGCAUGUUCCCAGCCUCCUCGCUGGCGCCGGCUGGGCAACAUUCCGAGGGGACCGUCCCCUCGGUAAUGGCGAAUUGGACCCA,0.113
8,GGCCGGCAUGGUCCCAGCCUCCUCGCUGGCGCCGGCUGGGCAACAGUCGGAGGGGACCGUCCCCUCGGUAAUGGCGAAUGGGACCCA,0.465
9,GGCCGGCAUGGUCCCAGCCUCCUCGGUGGCGCCGGCUGGGCAACAUUCCGAUGGGACCGUCCCCUCGGUAAUGGCGAAUGGGACCCA,0.671
10,GGCCGGCAUGGUCCAAGCCUCCUCGCUGGCGCCGGCUGGGCAACAUUCCGAGGGGACCGUCUCCUCGGUAAUGGCGAAUGGGACCCA,0.764
11,GGCCGGCAUGGUCCCAGCCUCCUCGCUGGCGCCGGCUGGGCAACAUUCCGAGGGGACCGUCCCCUAGGUAAUGGCGCAUGGGACCCA,0.237
12,GGCCGGCAUGGUCCCAGCCUCCUCGCUGGCGCCGGCUGGGCAACAUUACGAGGGGACCGUCCCCUCGGUAAUGGCGAACGGGACCCA,0.514
13,GGCCGGCAUGGUCCCAGCAUCCUCGCUGGCGCCGGCUGGGCAACAUUCCGAGGGGACCGUCCCCUCGGUAAUGGCGAAAGGGACCCA,0.0773
14,GGCCGGCAUGGUCCCAGCCUCCUCGCUGGCGCCGGCUGGGCAACAUUCCGAGGGGACCGUCCCCUCGGUAAUGGCGUAUGGGAUCCA,0.489
15,GGCCGGCAUAGUCCCAGCCUCCUCGCGGGCGCCGGCUGGGCAACAUUCCGAGGGGACCGUCCCCUCGGUAAUGGCGAAUGGGACCCA,0.98
16,GGCCGGCAUGGUCCCAGCCUCCUCGCUGGCGCCGGCUGGGCAACAUUCCGAGCGGACCGUCCCCUCGGUAAUGGCGAAUGGGACCCC,1.01
17,GGCCGGCAUGGUCCAAGCCUCCUCGCUGGCGCCUGCUGGGCAACAUUCCGAGGGGACCGUCCCCUCGGUAAUGGCGAAUGGGACCCA,0
18,GGCCGGCAUGGUCCCAGCCUCCUCGCUGGCGCCGGCUGGGCAACAGUCCGAGGGGACCGUCCCCCCGGUAAUGGCGAAUGGGACCCA,0.615
19,GGCCGGCAUGGACCCAGCCUCCUCGCUGGCGCCGGCUGGGCAACACUCCGAGGGGACCGUCCCCUCGGUAAUGGCGAAUGGGACCCA,0
20,GGCCGGCAUGGUCCCAGCCUACUCGCUGGCGCCGGCUGGGCAACAUUCCGAGGGGACCGUCCCCUCGGUCAUGGCGAAUGGGACCCA,0.0426
21,GGCCGGCAUGGUCCCAGCCUCCUCGCUGGCGCCGGCUGGGCAACAUUCCGAGGGGACCGUCCCCUAGGUAACGGCGAAUGGGACCCA,0.229
22,GGCCGGCAUGGUCCCAGCCUCCUCGCUGGCGCCGGCUGGCCAACAUUCCGAGGGGACCGUCCGCUCGGUAAUGGCGAAUGGGACCCA,0.138

row,Variant,self-cleavage
1,GGCCGGCAUGGUCCCAGCCUCCUCGCUGGCGCCGGCUGGGCAACAUUCCGAGGGGACCGUCCCCUCGGUAAUGGUGAAUGGGGCCCA,0.166
2,GGCCCGCAUGGUCCCAGCCUCCUCGCUGGCGCCGGCUGGGCAACAUUCCGAGGGGACCGUCCACUCGGUAAUGGCGAAUGGGACCCA,0.383
3,GGCCGGCAUGGUCCCAGCCUCCUCGCUGGCGCCGGCUGGGCAACAUUCCGAGGGGACCGUCCCCUCGGUUAUGGCGAAUGGGACUCA,0.746
4,GGCCGGCAUGGUCCCAGCCUCCUCGCUGGCGUCGGCUGGGCAACAUUCCGAGGGGACCGUCCCCUCGGUAGUGGCGAAUGGGACCCA,0.903
5,GGCCGGCAUGGUCCCAGCCUCCUCGCUGGCGCCGGCUGGGCAACAUACCGAGGGGACCGUCCCCUCGCUAAUGGCGAAUGGGACCCA,0.982
6,GGCCGGCAUGGUUCCAGCCUCCUCACUGGCGCCGGCUGGGCAACAUUCCGAGGGGACCGUCCCCUCGGUAAUGGCGAAUGGGACCCA,0.122
7,GGCCGGCAUGGUCCCAGCCUCCUCGCUGGCGCCGGCUGGGCCACAUUCCGACGGGACCGUCCCCUCGGUAAUGGCGAAUGGGACCCA,0.359
8,GGCCGGCAGGGUCCCAGCCUCCUCGCUGGCGCCGGCUGGGCAACAUUCCGAGGGGACCGUCCCCUCGGUAAUGGAGAAUGGGACCCA,0.201
9,GGCCGUCAUGGUCCCAGCCUCCUCGCUGGCGCCGGCUGGGCAACAUUCCGAGGGGACCGUGCCCUCGGUAAUGGCGAAUGGGACCCA,0.707
10,GGCCGGCAUGGUCCCAGCCUCCUCGCUGGCGCCGGCUGGGCAACAUUCCGAGGGGCCCGUCACCUCGGUAAUGGCGAAUGGGACCCA,0.935
11,GGCCGGCAUGGUCCCAGCCUCCUCGCUGGCGCCGGCUGGGCAACAUUCCGAGGGGACCGUCCCCUCGGUAAUGGCUAAUGAGACCCA,0.506
12,GGCCGGCAUGGUCCCAGCCUCCUCGCUGUCGCCGGCUGGGCAACAUUCAGAGGGGACCGUCCCCUCGGUAAUGGCGAAUGGGACCCA,0.111
13,GGCCGGCAUGGUCCCAGCCUCCUCGCUGGCGCUGGCUGGGCAACAUUCCGAGGGGACCUUCCCCUCGGUAAUGGCGAAUGGGACCCA,0.855
14,GGCCGGCAUGGUCCCAGCCUCCUCGAUGACGCCGGCUGGGCAACAUUCCGAGGGGACCGUCCCCUCGGUAAUGGCGAAUGGGACCCA,0.13
15,GGCAGGCAUGGUCCCAGCCUCCUCGCUGGGGCCGGCUGGGCAACAUUCCGAGGGGACCGUCCCCUCGGUAAUGGCGAAUGGGACCCA,0
16,GGCCGGCAUGGUCCCAGCCUCCUCGCUGGCGCUGGCUGGGCAACAUUCCGAGGGGACCGUCGCCUCGGUAAUGGCGAAUGGGACCCA,0.635
17,GGCCGGCAUGGUCCCAGCCUCCUCGCUGGCGCCGGCUGGGCAACAUGCCGAGGGGACCGUCCCCUCGGUAAUGGCGGAUGGGACCCA,0.923
18,GGCCGGCAUGGUCCCAGCCUCCUCGCUGGCGCCGGCUGGGCAACAUUCCGAGGGGACCGUCCCCUCGGUAAUUGCGAAUGUGACCCA,0.208
19,GGCCGGCAUGGUCCCAGCCUCCUCGCUGGCGCCGGGUGGGCAACAUUCCGAGGGGACCGUCCCUUCGGUAAUGGCGAAUGGGACCCA,0.138
20,GGCCAGCAUGGUCCCAGCCUCCUCGCUGGCACCGGCUGGGCAACAUUCCGAGGGGACCGUCCCCUCGGUAAUGGCGAAUGGGACCCA,0
